{
  "source": "patent US20050032064A1",
  "about": "(GENFIT, published 2005)",
  "molecular_target": "the molecule itself",
  "experiment": "electrophoretic mobility shift assay, in vitro translated protein on labeled Rev-DR2 oligonucleotide",
  "protocol": "The electrophoretic gel shift studies were carried out by using the indicated end-labeled oligonucleotides, in the presence of the murine PPAR GAMMA receptor, murine RXR ALPHA receptor, human REV-ERB ALPHA receptor produced by reticulocyte lysate, or non-programmed lysates (lysate). Binding competition experiments were performed by adding a 0, 10 or 100-fold excess of unlabeled Rev-DR2 oligonucleotide.\nThe pSG5-mPPAR-gamma, pSG5-mRXR-alpha and pSG5-hRev-erb alpha plasmids were transcribed in vitro with T7 polymerase and translated with the rabbit reticulocyte lysate system (Promega, Madison, Wis., USA). Gel shift experiments with REV-ERB ALPHA, PPAR GAMMA and/or RXR ALPHA proteins were carried out as previously described (Gervois, P. et al., Molecular Endocrinology 1999, 13(3): 400-409; Vu-Dac, N. et al., J. Biol. Chem. 1994, 269(49): 31012-31018). For the competition experiments, increasing quantities of the indicated unlabeled probe were added immediately before adding the labeled oligonucleotide. The complexes were resolved in 5% polyacrylamide gels using […] buffer (90 mM borate, 2.5 mM EDTA, pH 8.3) at room temperature. Gels were dried and exposed overnight at −70° C. on Rayon-X film (XOMAT-AR, Eastman Kodak, Rochester, N.Y., USA).\nLastly, binding of the PPAR GAMMA receptor to the Rev-DR2 site was studied. […]",
  "data": [
    {"protein": "human REV-ERB ALPHA receptor (receptor, also called hRev-erb alpha) MTTLDSNNNTGGVITYIGSSGSSPSRTSPESLYSDNSNGSFQSLTQGCPTYFPPSPTGSLTQDPARSFGSIPPSLSDDGSPSSSSSSSSSSSSFYNGSPPGSLQVAMEDSSRVSPSKSTSNITKLNGMVLLCKVCGDVASGFHYGVHACEGCKGFFRRSIQQNIQYKRCLKNENCSIVRINRNRCQQCRFKKCLSVGMSRDAVRFGRIPKREKQRMLAEMQSAMNLANNQLSSQCPLETSPTQHPTPGPMGPSPPPAPVPSPLVGFSQFPQQLTPPRSPSPEPTVEDVISQVARAHREIFTYAHDKLGSSPGNFNANHASGSPPATTPHRWENQGCPPAPNDNNTLAAQRHNEALNGLRQAPSSYPPTWPPGPAHHSCHQSNSNGHRLCPTHVYAAPEGKAPANSPRQGNSKNVLLACPMNMYPHGRSGRTVQEIWEDFSMSFTPAVREVVEFAKHIPGFRDLSQHDQVTLLKAGTFEVLMVRFASLFNVKDQTVMFLSRTTYSLQELGAMGMGDLLSAMFDFSEKLNSLALTEEELGLFTAVVLVSADRSGMENSASVEQLQETLLRALRALVLKNRPLETSRFTKLLLKLPDLRTLNNMHSEKLLSFRVDAQ", "values": [
      {"measurement": "binding result", "value": "binds"}
    ]}
  ]
}
